Source: paper PMC4917896, “RNA binding proteins regulate anabolic and catabolic gene expression in chondrocytes”

Target: TTP (tristetraprolin), GST-TTP (UniProt P26651 1-326)
Assay: EMSA; 10 mM Tris-HCl pH 7.5, 50 mM KCl, 1 mM DTT, 5% glycerol, 500 ug/ml tRNA, 40 ng probe in 20 ul, 20 min at 4 C (stated for lysate EMSA); 6% native PAGE on ice
Details: protein: commercial; (GST fusion); label: 3' biotin

TTP (tristetraprolin), GST-TTP, sequence (P26651 whole entry): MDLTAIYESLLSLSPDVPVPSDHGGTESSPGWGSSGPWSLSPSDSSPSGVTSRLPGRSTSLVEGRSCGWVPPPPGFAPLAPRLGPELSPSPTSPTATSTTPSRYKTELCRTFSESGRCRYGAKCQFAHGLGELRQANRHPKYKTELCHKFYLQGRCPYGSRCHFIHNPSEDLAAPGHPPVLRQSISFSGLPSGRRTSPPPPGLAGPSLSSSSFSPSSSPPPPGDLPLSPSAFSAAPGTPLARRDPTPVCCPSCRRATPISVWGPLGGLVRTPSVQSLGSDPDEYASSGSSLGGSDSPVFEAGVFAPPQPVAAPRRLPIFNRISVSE

| Binder | binding result |
| --- | --- |
| P5M (probe 5, AUUUA to AGGGA) (ssRNA) RNA: GGGAGCAGUUAACCUUCAAGACAUUCCACUUGCUAAAAUUAGGGAUUUUGUAAGGAGAGGUUUUAAUUAAAACAAAAAAAAA | no binding |
| P6M (probe 6, AUUUA to AGGGA) (ssRNA) RNA: GGGGUUAAAUUAUGUUCUUAACUGUAACCAGUUUUUUUUUAGGGAUCUCUUUAAUCUUUUUUUAUUAUUAAAAGCAAGUUUC | no binding |
